Test results: patent US20030186334A1, “KTS-disintegrins” (Temple University - Of the Commonwealth System of Higher …, priority 2001, published 2003)
Read-outs that look alike come from different tables or passages of the source.

T1: αvβ3 integrin, P06756
T1 chain 1: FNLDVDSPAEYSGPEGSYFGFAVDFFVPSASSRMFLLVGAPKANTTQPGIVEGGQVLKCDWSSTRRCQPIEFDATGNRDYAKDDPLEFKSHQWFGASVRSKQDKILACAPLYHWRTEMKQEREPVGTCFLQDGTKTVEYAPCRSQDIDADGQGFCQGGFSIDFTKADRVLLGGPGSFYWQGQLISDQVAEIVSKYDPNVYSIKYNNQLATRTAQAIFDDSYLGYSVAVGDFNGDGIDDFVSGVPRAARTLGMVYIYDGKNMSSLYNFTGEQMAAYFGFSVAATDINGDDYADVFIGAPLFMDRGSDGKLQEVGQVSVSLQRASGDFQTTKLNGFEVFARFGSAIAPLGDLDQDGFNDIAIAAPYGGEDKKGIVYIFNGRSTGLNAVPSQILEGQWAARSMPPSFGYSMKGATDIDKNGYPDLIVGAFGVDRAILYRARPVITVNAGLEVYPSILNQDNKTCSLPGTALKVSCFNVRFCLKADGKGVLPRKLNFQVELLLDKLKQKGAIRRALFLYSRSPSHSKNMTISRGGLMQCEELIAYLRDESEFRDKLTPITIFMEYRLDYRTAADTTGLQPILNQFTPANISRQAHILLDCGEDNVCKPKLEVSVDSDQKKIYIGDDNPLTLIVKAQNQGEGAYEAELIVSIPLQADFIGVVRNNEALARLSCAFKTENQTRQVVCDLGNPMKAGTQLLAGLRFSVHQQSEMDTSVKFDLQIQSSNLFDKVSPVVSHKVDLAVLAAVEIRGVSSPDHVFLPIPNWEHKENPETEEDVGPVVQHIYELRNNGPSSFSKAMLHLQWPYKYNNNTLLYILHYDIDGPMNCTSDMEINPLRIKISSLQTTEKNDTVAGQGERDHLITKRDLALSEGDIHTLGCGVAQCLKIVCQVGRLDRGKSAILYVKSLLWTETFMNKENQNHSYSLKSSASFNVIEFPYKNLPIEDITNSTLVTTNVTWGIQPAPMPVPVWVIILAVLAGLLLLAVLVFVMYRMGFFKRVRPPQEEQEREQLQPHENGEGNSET
T1 chain 2: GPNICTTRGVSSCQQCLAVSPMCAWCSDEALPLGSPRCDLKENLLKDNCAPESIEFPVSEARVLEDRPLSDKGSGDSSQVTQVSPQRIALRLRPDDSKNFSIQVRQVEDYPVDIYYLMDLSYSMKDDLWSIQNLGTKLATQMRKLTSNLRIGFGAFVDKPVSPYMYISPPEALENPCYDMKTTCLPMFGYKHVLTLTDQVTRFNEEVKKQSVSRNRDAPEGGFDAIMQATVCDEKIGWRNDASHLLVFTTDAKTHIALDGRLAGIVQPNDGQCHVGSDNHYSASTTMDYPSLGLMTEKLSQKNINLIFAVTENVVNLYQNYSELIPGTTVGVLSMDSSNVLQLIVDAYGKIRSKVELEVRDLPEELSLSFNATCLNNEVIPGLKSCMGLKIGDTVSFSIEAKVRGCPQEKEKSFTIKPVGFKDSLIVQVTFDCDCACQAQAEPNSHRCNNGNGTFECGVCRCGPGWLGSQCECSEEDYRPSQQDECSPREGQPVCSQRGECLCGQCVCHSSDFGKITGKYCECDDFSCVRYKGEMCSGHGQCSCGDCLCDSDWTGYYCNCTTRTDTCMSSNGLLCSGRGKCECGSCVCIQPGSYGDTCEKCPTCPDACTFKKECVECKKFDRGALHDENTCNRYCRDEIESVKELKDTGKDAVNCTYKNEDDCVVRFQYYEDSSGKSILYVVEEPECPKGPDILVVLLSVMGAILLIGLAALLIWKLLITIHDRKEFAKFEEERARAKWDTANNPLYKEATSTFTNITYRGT

T2: mouse α1β1 integrin (mouse), Q3V3R4
T2 chain 1: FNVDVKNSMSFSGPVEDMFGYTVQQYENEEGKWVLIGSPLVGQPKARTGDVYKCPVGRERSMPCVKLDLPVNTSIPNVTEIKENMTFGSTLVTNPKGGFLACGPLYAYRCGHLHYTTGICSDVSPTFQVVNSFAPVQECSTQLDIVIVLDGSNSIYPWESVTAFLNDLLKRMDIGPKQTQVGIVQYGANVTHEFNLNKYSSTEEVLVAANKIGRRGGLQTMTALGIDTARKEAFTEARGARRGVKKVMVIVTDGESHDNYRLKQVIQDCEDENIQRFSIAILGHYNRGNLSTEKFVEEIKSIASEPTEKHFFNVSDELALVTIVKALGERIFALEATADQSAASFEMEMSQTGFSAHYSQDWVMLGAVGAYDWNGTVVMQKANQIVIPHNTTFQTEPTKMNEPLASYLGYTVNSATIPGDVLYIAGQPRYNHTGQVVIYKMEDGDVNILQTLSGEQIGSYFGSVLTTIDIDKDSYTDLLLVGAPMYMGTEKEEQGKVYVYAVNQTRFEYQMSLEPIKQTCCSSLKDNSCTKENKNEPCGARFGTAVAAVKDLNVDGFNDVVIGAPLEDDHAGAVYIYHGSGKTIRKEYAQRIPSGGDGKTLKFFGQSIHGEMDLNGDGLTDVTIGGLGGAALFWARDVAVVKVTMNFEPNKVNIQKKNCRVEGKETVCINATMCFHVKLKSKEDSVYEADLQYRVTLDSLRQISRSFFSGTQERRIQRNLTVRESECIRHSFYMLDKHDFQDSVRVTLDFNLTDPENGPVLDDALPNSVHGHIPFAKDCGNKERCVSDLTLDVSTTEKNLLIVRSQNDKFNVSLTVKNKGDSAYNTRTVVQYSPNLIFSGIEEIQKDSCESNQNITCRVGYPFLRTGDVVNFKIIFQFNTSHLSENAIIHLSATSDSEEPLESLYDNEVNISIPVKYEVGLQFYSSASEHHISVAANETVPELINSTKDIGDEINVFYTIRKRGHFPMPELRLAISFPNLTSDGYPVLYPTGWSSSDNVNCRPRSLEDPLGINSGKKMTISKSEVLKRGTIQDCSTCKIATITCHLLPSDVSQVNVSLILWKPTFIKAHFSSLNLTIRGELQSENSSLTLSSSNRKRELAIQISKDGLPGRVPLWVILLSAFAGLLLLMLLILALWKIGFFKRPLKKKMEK
T2 chain 2: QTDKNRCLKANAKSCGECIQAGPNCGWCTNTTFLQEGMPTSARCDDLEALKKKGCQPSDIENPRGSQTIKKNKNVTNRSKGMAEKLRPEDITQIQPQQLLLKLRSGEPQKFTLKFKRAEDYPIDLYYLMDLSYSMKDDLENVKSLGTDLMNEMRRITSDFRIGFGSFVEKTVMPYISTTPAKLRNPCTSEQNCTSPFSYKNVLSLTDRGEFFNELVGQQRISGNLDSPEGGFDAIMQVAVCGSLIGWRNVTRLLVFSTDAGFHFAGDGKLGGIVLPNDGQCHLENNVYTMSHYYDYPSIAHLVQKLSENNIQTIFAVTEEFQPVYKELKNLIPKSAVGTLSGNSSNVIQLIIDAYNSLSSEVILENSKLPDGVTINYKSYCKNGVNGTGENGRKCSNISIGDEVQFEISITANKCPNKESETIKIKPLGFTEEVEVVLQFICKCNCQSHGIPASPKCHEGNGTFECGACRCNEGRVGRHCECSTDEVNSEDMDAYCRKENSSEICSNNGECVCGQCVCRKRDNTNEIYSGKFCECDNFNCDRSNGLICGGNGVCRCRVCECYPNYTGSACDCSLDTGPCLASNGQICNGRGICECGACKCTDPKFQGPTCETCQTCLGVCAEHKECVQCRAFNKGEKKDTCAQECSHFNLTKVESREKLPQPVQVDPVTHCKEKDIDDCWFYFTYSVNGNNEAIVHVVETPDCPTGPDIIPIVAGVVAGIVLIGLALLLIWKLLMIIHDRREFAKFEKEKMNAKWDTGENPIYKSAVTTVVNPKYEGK


What was measured:
αIIbβ3 integrin, P08514 [1] = test: inhibition of adhesion of A5 cells to fibrinogen
α4β1 integrin, P13612 = test: inhibition of adhesion of Jurkat cells to VCAM-1
αIIbβ3 integrin, P08514 [2] = test: inhibition of adhesion of A5 cells to fibrinogen; remark: listed apart in the source
αvβ3 integrin, P06756 = target: T1, αvβ3 integrin, P06756; test: inhibition of adhesion of JY cells to vitronectin
α9β1 integrin, Q13797 = test: inhibition of adhesion of SW480α9 cells to VCAM-1
α5β1 integrin, P08648 [3] = test: inhibition of adhesion of K562 cells to fibronectin
Target sequence in this assay (P08648 42-1049): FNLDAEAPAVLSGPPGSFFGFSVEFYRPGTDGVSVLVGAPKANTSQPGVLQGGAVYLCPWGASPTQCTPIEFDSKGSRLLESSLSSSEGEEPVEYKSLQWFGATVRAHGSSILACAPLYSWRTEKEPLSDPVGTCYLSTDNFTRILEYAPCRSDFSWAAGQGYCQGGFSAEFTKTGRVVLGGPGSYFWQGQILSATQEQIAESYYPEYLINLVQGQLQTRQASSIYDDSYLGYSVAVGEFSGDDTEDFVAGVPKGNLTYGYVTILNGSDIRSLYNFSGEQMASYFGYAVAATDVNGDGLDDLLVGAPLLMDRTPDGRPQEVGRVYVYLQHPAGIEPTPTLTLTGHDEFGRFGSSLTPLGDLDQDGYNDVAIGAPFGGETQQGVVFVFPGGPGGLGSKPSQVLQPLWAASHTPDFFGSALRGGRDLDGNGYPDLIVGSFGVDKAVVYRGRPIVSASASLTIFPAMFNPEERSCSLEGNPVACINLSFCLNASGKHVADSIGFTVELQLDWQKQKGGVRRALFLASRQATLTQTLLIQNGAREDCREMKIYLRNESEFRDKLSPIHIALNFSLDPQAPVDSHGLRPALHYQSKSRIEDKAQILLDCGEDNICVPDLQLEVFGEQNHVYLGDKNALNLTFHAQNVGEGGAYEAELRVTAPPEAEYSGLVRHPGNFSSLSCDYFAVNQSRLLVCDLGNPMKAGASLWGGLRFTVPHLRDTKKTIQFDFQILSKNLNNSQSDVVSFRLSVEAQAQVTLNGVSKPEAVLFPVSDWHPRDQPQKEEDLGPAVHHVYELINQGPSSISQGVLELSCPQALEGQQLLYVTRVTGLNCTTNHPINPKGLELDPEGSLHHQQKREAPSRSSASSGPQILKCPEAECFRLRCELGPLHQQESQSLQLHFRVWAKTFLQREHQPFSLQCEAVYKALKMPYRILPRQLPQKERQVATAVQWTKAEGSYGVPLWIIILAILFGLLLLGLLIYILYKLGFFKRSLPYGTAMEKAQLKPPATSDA

α2β1 integrin, P17301 = test: inhibition of adhesion of α2K562 cells to collagen I
[4] = target: human α1β1 integrin (human), P56199; test: inhibition of adhesion of α1K562 cells to collagen I
[5] = target: human α1β1 integrin (human), P56199; test: inhibition of adhesion of α1K562 cells to collagen IV
[6] = target: T2, mouse α1β1 integrin (mouse), Q3V3R4; test: inhibition of adhesion of B16F10 cells to collagen IV
[7] = target: human α1β1 integrin (human), P56199; test: inhibition of adhesion of HS.939T cells to collagen IV
α5β1 integrin, P08648 [8] = test: inhibition of adhesion of K562 cells to fibronectin; remark: listed apart in the source
Target sequence in this assay (P08648 42-1049, chain 1 of 2): as the sequence (P08648 42-1049) above
Target sequence in this assay (P05556 21-798, chain 2 of 2, further chain): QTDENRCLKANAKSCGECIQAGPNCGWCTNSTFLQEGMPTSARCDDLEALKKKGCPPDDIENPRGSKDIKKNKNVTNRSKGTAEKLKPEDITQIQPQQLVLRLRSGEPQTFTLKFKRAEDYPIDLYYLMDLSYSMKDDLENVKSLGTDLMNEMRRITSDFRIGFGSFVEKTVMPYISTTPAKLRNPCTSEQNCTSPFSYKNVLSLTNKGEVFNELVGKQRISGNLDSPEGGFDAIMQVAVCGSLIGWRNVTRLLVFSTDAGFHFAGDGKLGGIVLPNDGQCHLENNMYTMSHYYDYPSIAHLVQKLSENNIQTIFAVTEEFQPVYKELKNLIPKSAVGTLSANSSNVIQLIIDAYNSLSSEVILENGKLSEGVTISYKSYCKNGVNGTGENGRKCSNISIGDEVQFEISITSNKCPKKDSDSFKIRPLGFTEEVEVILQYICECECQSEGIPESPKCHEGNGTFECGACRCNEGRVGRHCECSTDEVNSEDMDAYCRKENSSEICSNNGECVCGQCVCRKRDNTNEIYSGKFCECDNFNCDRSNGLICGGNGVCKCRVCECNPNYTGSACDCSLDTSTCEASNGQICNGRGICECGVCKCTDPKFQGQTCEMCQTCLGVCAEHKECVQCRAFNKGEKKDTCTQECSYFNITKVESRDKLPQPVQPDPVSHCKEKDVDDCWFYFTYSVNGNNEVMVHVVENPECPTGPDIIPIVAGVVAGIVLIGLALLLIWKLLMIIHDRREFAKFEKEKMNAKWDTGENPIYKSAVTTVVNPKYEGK

[9] = target: human α1β1 integrin (human), P56199; test: inhibition of adhesion of α1K562 cells to immobilised collagen IV

α9β1 integrin, Q13797, sequence (Q13797 30-1035): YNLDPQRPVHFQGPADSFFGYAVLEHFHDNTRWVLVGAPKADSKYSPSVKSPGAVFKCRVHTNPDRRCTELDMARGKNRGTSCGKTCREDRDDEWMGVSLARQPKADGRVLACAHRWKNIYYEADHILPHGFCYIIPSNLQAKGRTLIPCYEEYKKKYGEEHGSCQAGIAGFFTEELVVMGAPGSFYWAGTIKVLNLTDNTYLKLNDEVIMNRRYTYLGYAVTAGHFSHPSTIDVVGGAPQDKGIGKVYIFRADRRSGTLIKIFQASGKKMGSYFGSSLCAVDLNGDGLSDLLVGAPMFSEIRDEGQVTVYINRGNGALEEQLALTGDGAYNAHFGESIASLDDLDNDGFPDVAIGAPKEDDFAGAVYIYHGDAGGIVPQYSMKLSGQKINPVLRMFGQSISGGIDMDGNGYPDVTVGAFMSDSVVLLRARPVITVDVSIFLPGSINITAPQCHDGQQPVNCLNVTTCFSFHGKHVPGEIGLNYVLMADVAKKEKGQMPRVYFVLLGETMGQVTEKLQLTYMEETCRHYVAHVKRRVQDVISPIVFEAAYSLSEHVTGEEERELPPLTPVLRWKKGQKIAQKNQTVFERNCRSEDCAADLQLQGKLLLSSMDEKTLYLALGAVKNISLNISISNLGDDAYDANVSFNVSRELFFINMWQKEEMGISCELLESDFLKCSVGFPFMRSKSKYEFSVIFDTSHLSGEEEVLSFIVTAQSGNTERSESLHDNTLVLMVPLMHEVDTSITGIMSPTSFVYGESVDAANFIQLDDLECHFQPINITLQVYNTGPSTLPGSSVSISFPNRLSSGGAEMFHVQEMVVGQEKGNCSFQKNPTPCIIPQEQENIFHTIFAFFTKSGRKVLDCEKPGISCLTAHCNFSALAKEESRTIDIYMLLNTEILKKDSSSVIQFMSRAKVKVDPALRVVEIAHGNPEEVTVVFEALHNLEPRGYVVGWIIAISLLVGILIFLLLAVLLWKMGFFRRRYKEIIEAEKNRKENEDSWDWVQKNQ

Binder | IC50 (αIIbβ3 integrin, P08514 [1]) [µM] | IC50 (α4β1 integrin, P13612) [µM] | IC50 (αIIbβ3 integrin, P08514 [2]) [µM] | IC50 (αvβ3 integrin, P06756) [µM] | IC50 (α9β1 integrin, Q13797) [µM] | IC50 (α5β1 integrin, P08648 [3]) [µM] | IC50 (α2β1 integrin, P17301) [µM] | IC50 [4] [nM] | IC50 [5] [nM] | IC50 [6] [µM] | IC50 [7] [nM] | IC50 (α5β1 integrin, P08648 [8]) [µM] | IC50 [9] [µM]
QEEPCATGPCCRRCKFKRAGKVCRVARGDWNDDYCTGKSCDCPKNPWNG (modifications not checked) [eristostatin, P0C6S4 1-49] | 0.005 | > 10 | 0.05 | 2 | > 10 | > 10 | > 10 | > 10000 | > 10000 | > 10 | > 10000 | – | –
QCESGPCCRNCKFLKEGTICKRARGDDMDDYCNGKTCDCPRNPHKGPAT (modifications not checked) [echistatin, P17347 131-179] | 0.05 | > 10 | – | 0.0001 | > 10 | 0.05 | > 10 | > 10000 | > 10000 | > 10 | > 10000 | – | –
CTTGPCCRQCKLKPAGTTCWKTSLTSHYCTGKSCDCPLYPG (modifications not checked) [obtustatin] | > 10 | > 10 | – | > 10 | > 10 | > 10 | > 10 | 0.5 | 2 | 0.0002 | 0.1 | > 5 | 0.002
CTTGPCCRQCKLKPAGTTCWKTSRTSHYCTGKSCDCPVYQG (modifications not checked) [viperisrastatin] | – | > 10 | > 10 | > 10 | > 10 | – | > 10 | 0.02 | 0.08 | 0.00025 | 0.002 | > 10 | –
CWKTSLTSHYC (modifications not checked) [synthetic peptide … (SEQ ID NO: 5)] | – | – | – | – | – | – | – | – | – | – | – | – | 600
